From article PMC9232890

Molecular target: NIST mAb
Test: AUC

amount of dimer (%), fit of 20 scans: 3%
amount of dimer (%), fit of 50 scans: 3%
amount of dimer (%), fit of 100 scans: 3%
amount of dimer (%), fit of 250 scans: 3%
Substance: NIST mAb (antibody)
